Consider eleven molecules from patent US20180273587A1 (AILERON THERAPEUTICS, published 2018).

The labels stand for the following.
B1: SEQ ID NO: 1676 (peptide)
peptide: Ac-IWIAQALR[R8]IGDQFA[S5]YYA-NH2
modifications: staple 9-16
SMILES: CC[C@H](C)[C@H](NC(C)=O)C(=O)N[C@@H](Cc1c[nH]c2ccccc12)C(=O)N[C@H](C(=O)N[C@@H](C)C(=O)N[C@@H](CCC(N)=O)C(=O)N[C@@H](C)C(=O)N[C@@H](CC(C)C)C(=O)N[C@@H](CCCNC(=N)N)C(=O)N[C@]1(C)CCCCCCC=CCCC[C@@](C)(C(=O)N[C@@H](Cc2ccc(O)cc2)C(=O)N[C@@H](Cc2ccc(O)cc2)C(=O)N[C@@H](C)C(N)=O)NC(=O)[C@H](C)NC(=O)[C@H](Cc2ccccc2)NC(=O)[C@H](CCC(N)=O)NC(=O)[C@H](CC(=O)O)NC(=O)CNC(=O)[C@H]([C@@H](C)CC)NC1=O)[C@@H](C)CC
B2: SEQ ID NO: 1683 (peptide)
peptide: Ac-IW[Phe(4-CF3)]AQALR[R8]IGDAFN[S5]YYA-NH2
modifications: staple 9-16
SMILES: CC[C@H](C)[C@H](NC(C)=O)C(=O)N[C@@H](Cc1c[nH]c2ccccc12)C(=O)N[C@@H](Cc1ccc(C(F)(F)F)cc1)C(=O)N[C@@H](C)C(=O)N[C@@H](CCC(N)=O)C(=O)N[C@@H](C)C(=O)N[C@@H](CC(C)C)C(=O)N[C@@H](CCCNC(=N)N)C(=O)N[C@]1(C)CCCCCCC=CCCC[C@@](C)(C(=O)N[C@@H](Cc2ccc(O)cc2)C(=O)N[C@@H](Cc2ccc(O)cc2)C(=O)N[C@@H](C)C(N)=O)NC(=O)[C@H](CC(N)=O)NC(=O)[C@H](Cc2ccccc2)NC(=O)[C@H](C)NC(=O)[C@H](CC(=O)O)NC(=O)CNC(=O)[C@H]([C@@H](C)CC)NC1=O
notes: also called Ac-IWF4CF3AQALR$r8IGDAFN$YYA-NH2
B3: SEQ ID NO: 1678 (peptide)
peptide: Ac-IW[hhL]AQALR[R8]IGDAFN[S5]YYA-NH2
modifications: staple 9-16
SMILES: CC[C@H](C)[C@H](NC(C)=O)C(=O)N[C@@H](Cc1c[nH]c2ccccc12)C(=O)N[C@@H](CCCC(C)C)C(=O)N[C@@H](C)C(=O)N[C@@H](CCC(N)=O)C(=O)N[C@@H](C)C(=O)N[C@@H](CC(C)C)C(=O)N[C@@H](CCCNC(=N)N)C(=O)N[C@]1(C)CCCCCCC=CCCC[C@@](C)(C(=O)N[C@@H](Cc2ccc(O)cc2)C(=O)N[C@@H](Cc2ccc(O)cc2)C(=O)N[C@@H](C)C(N)=O)NC(=O)[C@H](CC(N)=O)NC(=O)[C@H](Cc2ccccc2)NC(=O)[C@H](C)NC(=O)[C@H](CC(=O)O)NC(=O)CNC(=O)[C@H]([C@@H](C)CC)NC1=O
notes: also called Ac-IWhhLAQALR$r8IGDAFN$YYA-NH2
B4: SEQ ID NO: 1681 (peptide)
peptide: Ac-IW[hPhe]AQALR[R8]IGDAFN[S5]YYA-NH2
modifications: staple 9-16
SMILES: CC[C@H](C)[C@H](NC(C)=O)C(=O)N[C@@H](Cc1c[nH]c2ccccc12)C(=O)N[C@@H](CCc1ccccc1)C(=O)N[C@@H](C)C(=O)N[C@@H](CCC(N)=O)C(=O)N[C@@H](C)C(=O)N[C@@H](CC(C)C)C(=O)N[C@@H](CCCNC(=N)N)C(=O)N[C@]1(C)CCCCCCC=CCCC[C@@](C)(C(=O)N[C@@H](Cc2ccc(O)cc2)C(=O)N[C@@H](Cc2ccc(O)cc2)C(=O)N[C@@H](C)C(N)=O)NC(=O)[C@H](CC(N)=O)NC(=O)[C@H](Cc2ccccc2)NC(=O)[C@H](C)NC(=O)[C@H](CC(=O)O)NC(=O)CNC(=O)[C@H]([C@@H](C)CC)NC1=O
notes: also called Ac-IWhFAQALR$r8IGDAFN$YYA-NH2
B5: SEQ ID NO: 1679 (peptide)
peptide: Ac-IW[Gly(1-adamantyl)]AQALR[R8]IGDAFN[S5]YYA-NH2
modifications: staple 9-16
SMILES: CC[C@H](C)[C@H](NC(C)=O)C(=O)N[C@@H](Cc1c[nH]c2ccccc12)C(=O)N[C@H](C(=O)N[C@@H](C)C(=O)N[C@@H](CCC(N)=O)C(=O)N[C@@H](C)C(=O)N[C@@H](CC(C)C)C(=O)N[C@@H](CCCNC(=N)N)C(=O)N[C@]1(C)CCCCCCC=CCCC[C@@](C)(C(=O)N[C@@H](Cc2ccc(O)cc2)C(=O)N[C@@H](Cc2ccc(O)cc2)C(=O)N[C@@H](C)C(N)=O)NC(=O)[C@H](CC(N)=O)NC(=O)[C@H](Cc2ccccc2)NC(=O)[C@H](C)NC(=O)[C@H](CC(=O)O)NC(=O)CNC(=O)[C@H]([C@@H](C)CC)NC1=O)C12CC3CC(CC(C3)C1)C2
notes: also called Ac-IWAdmAQALR$r8IGDAFN$YYA-NH2
B6: SEQ ID NO: 1677 (peptide)
peptide: Ac-IW[Cha]AQALR[R8]IGDAFN[S5]YYA-NH2
modifications: staple 9-16
SMILES: CC[C@H](C)[C@H](NC(C)=O)C(=O)N[C@@H](Cc1c[nH]c2ccccc12)C(=O)N[C@@H](CC1CCCCC1)C(=O)N[C@@H](C)C(=O)N[C@@H](CCC(N)=O)C(=O)N[C@@H](C)C(=O)N[C@@H](CC(C)C)C(=O)N[C@@H](CCCNC(=N)N)C(=O)N[C@]1(C)CCCCCCC=CCCC[C@@](C)(C(=O)N[C@@H](Cc2ccc(O)cc2)C(=O)N[C@@H](Cc2ccc(O)cc2)C(=O)N[C@@H](C)C(N)=O)NC(=O)[C@H](CC(N)=O)NC(=O)[C@H](Cc2ccccc2)NC(=O)[C@H](C)NC(=O)[C@H](CC(=O)O)NC(=O)CNC(=O)[C@H]([C@@H](C)CC)NC1=O
notes: also called Ac-IWChaAQALR$r8IGDAFN$YYA-NH2
B7: SEQ ID NO: 1680 (peptide)
peptide: Ac-IW[hCha]AQALR[R8]IGDAFN[S5]YYA-NH2
modifications: staple 9-16
SMILES: CC[C@H](C)[C@H](NC(C)=O)C(=O)N[C@@H](Cc1c[nH]c2ccccc12)C(=O)N[C@@H](CCC1CCCCC1)C(=O)N[C@@H](C)C(=O)N[C@@H](CCC(N)=O)C(=O)N[C@@H](C)C(=O)N[C@@H](CC(C)C)C(=O)N[C@@H](CCCNC(=N)N)C(=O)N[C@]1(C)CCCCCCC=CCCC[C@@](C)(C(=O)N[C@@H](Cc2ccc(O)cc2)C(=O)N[C@@H](Cc2ccc(O)cc2)C(=O)N[C@@H](C)C(N)=O)NC(=O)[C@H](CC(N)=O)NC(=O)[C@H](Cc2ccccc2)NC(=O)[C@H](C)NC(=O)[C@H](CC(=O)O)NC(=O)CNC(=O)[C@H]([C@@H](C)CC)NC1=O
notes: also called Ac-IWhChaAQALR$r8IGDAFN$YYA-NH2
B8: SEQ ID NO: 1695 (peptide)
peptide: Ac-IWIAQA[Phe(4-tBu)]R[R8]IGDAFN[S5]YYA-NH2
modifications: staple 9-16
SMILES: CC[C@H](C)[C@H](NC(C)=O)C(=O)N[C@@H](Cc1c[nH]c2ccccc12)C(=O)N[C@H](C(=O)N[C@@H](C)C(=O)N[C@@H](CCC(N)=O)C(=O)N[C@@H](C)C(=O)N[C@@H](Cc1ccc(C(C)(C)C)cc1)C(=O)N[C@@H](CCCNC(=N)N)C(=O)N[C@]1(C)CCCCCCC=CCCC[C@@](C)(C(=O)N[C@@H](Cc2ccc(O)cc2)C(=O)N[C@@H](Cc2ccc(O)cc2)C(=O)N[C@@H](C)C(N)=O)NC(=O)[C@H](CC(N)=O)NC(=O)[C@H](Cc2ccccc2)NC(=O)[C@H](C)NC(=O)[C@H](CC(=O)O)NC(=O)CNC(=O)[C@H]([C@@H](C)CC)NC1=O)[C@@H](C)CC
notes: also called Ac-IWIAQAF4tBuR$r8IGDAFN$YYA-NH2
B9: SEQ ID NO: 1696 (peptide)
peptide: Ac-IWIAQA[2Nal]R[R8]IGDAFN[S5]YYA-NH2
modifications: staple 9-16
SMILES: CC[C@H](C)[C@H](NC(C)=O)C(=O)N[C@@H](Cc1c[nH]c2ccccc12)C(=O)N[C@H](C(=O)N[C@@H](C)C(=O)N[C@@H](CCC(N)=O)C(=O)N[C@@H](C)C(=O)N[C@@H](Cc1ccc2ccccc2c1)C(=O)N[C@@H](CCCNC(=N)N)C(=O)N[C@]1(C)CCCCCCC=CCCC[C@@](C)(C(=O)N[C@@H](Cc2ccc(O)cc2)C(=O)N[C@@H](Cc2ccc(O)cc2)C(=O)N[C@@H](C)C(N)=O)NC(=O)[C@H](CC(N)=O)NC(=O)[C@H](Cc2ccccc2)NC(=O)[C@H](C)NC(=O)[C@H](CC(=O)O)NC(=O)CNC(=O)[C@H]([C@@H](C)CC)NC1=O)[C@@H](C)CC
notes: also called Ac-IWIAQA2NalR$r8IGDAFN$YYA-NH2
B10: SEQ ID NO: 1682 (peptide)
peptide: Ac-IW[Igl]AQALR[R8]IGDAFN[S5]YYA-NH2
modifications: staple 9-16
SMILES: CC[C@H](C)[C@H](NC(C)=O)C(=O)N[C@@H](Cc1c[nH]c2ccccc12)C(=O)N[C@H](C(=O)N[C@@H](C)C(=O)N[C@@H](CCC(N)=O)C(=O)N[C@@H](C)C(=O)N[C@@H](CC(C)C)C(=O)N[C@@H](CCCNC(=N)N)C(=O)N[C@]1(C)CCCCCCC=CCCC[C@@](C)(C(=O)N[C@@H](Cc2ccc(O)cc2)C(=O)N[C@@H](Cc2ccc(O)cc2)C(=O)N[C@@H](C)C(N)=O)NC(=O)[C@H](CC(N)=O)NC(=O)[C@H](Cc2ccccc2)NC(=O)[C@H](C)NC(=O)[C@H](CC(=O)O)NC(=O)CNC(=O)[C@H]([C@@H](C)CC)NC1=O)C1Cc2ccccc2C1
notes: also called Ac-IWIglAQALR$r8IGDAFN$YYA-NH2
B11: SEQ ID NO: 1685 (peptide)
peptide: Ac-IW[2Nal]AQALR[R8]IGDAFN[S5]YYA-NH2
modifications: staple 9-16
SMILES: CC[C@H](C)[C@H](NC(C)=O)C(=O)N[C@@H](Cc1c[nH]c2ccccc12)C(=O)N[C@@H](Cc1ccc2ccccc2c1)C(=O)N[C@@H](C)C(=O)N[C@@H](CCC(N)=O)C(=O)N[C@@H](C)C(=O)N[C@@H](CC(C)C)C(=O)N[C@@H](CCCNC(=N)N)C(=O)N[C@]1(C)CCCCCCC=CCCC[C@@](C)(C(=O)N[C@@H](Cc2ccc(O)cc2)C(=O)N[C@@H](Cc2ccc(O)cc2)C(=O)N[C@@H](C)C(N)=O)NC(=O)[C@H](CC(N)=O)NC(=O)[C@H](Cc2ccccc2)NC(=O)[C@H](C)NC(=O)[C@H](CC(=O)O)NC(=O)CNC(=O)[C@H]([C@@H](C)CC)NC1=O
notes: also called Ac-IW2NalAQALR$r8IGDAFN$YYA-NH2

Starred links: 1 amine or outer side, 2 acyl side, 3 side chain; linkers in the order of their positions; H or OH if unused. Positions of bridges follow the written chain, without caps; N, C: chain ends. Non-standard residues stand in square brackets, D forms with d. Gly(1-adamantyl) = N[C@H](C(=O)O)C12CC3CC(CC(C3)C1)C2; Phe(4-CF3) = N[C@@H](Cc1ccc(C(F)(F)F)cc1)C(=O)O; Phe(4-tBu) = CC(C)(C)c1ccc(C[C@H](N)C(=O)O)cc1; hhL = hhLeu, CC(C)CCC[C@H](N[*:1])C(=O)[*:2]; 2Nal = N[C@@H](Cc1ccc2ccccc2c1)C(=O)O; Igl = N[C@H](C(=O)O)C1Cc2ccccc2C1; hCha = N[C@@H](CCC1CCCCC1)C(=O)O; hPhe = N[C@@H](CCc1ccccc1)C(=O)O; R8 = C=CCCCCCC[C@@](C)(N)C(=O)O; Cha = N[C@@H](CC1CCCCC1)C(=O)O; S5 = C=CCCC[C@](C)(N)C(=O)O

Chain of BCL-XL (Q07817 1-209): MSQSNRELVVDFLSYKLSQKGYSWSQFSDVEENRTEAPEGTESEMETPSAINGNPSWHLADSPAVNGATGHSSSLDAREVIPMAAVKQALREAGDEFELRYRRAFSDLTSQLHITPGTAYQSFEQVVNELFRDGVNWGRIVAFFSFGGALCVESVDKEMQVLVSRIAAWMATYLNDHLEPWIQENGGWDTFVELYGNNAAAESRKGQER

For one test, the target named is BCL-2 (UniProt P10415 1-217, limits assumed). In words: Ki table, method not stated.
Chain of BCL-2 (P10415 1-217 limits assumed): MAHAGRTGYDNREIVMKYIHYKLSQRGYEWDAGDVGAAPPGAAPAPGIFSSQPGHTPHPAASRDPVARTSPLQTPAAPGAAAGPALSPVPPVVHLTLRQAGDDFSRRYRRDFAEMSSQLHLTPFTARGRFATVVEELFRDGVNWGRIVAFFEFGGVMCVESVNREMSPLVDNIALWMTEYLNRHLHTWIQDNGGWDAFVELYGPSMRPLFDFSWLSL
As usually defined, the Ki is a dissociation constant, usually derived from enzyme kinetics or from competition with a known ligand. Read a low Ki as higher affinity. The molecule B1 gave a Ki of 84.9 nM.
On to B2, for which the Ki was 237 nM.
In turn, B3 returned a Ki of 161 nM. The Ki values of the last two molecules are within 1.5-fold of each other.
Same read-out and setting: for B4 the value was 221 nM.
On the same count and under the same terms, for B5 the value was 59 nM; for B6, 105 nM.
For the molecule B7, the Ki came out at 182 nM.
B8 had a Ki of 288 nM.
In the case of B9, the Ki amounted to 234 nM.
The molecule B10 showed a Ki of 246 nM. This Ki and that of the molecule before are within 1.5-fold of each other.
Take B11: the affinity, expressed as Ki, was 265 nM.

The target of a further test is T1, MCL-1 (UniProt Q07820 172-327, limits assumed).
T1 construct: also called Myeloid cell leukemia 1
T1 sequence (Q07820 172-327 limits assumed): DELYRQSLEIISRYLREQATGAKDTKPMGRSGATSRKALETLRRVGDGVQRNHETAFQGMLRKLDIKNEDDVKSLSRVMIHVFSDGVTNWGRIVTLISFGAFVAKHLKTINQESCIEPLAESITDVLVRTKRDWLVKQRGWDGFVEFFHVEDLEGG
In words: Ki table, method not stated.
Consider B1, for which the Ki was 22.8 nM.
In the case of B2, the affinity, expressed as Ki, was 76.7 nM.
Same read-out and setting: next, B3: 21.2 nM; B4: 53.1 nM.
B5 registered a Ki of 21.6 nM.
Turning to B6, the Ki was 43.8 nM.
As to B7, the affinity, expressed as Ki, was 22.2 nM.
In the case of B8, the inhibitory constant (Ki) came to 169 nM. Compared with the last molecule, the Ki is about 7.6-fold higher.
B9: the inhibition constant Ki was 120 nM. This Ki and that of the molecule before are within 1.5-fold of each other.
On to B10, for which the Ki was 12.8 nM.
Molecule B11 came in with a Ki of 163 nM. This Ki lies about 13-fold higher than the previous one.

A further test addresses BCL-XL (UniProt Q07817 1-209). In words: Ki table, method not stated.
The molecule B1 registered a Ki of 53.5 nM.
The molecule B2 yielded a Ki of 9.1 nM.
Molecule B3 gave a Ki of 11.9 nM.
Turning to B4, the Ki amounted to 69.7 nM. This Ki lies about 5.9-fold higher than the previous one.
On to B5, for which the Ki came out at 7.3 nM.
In the case of B6, the affinity corresponds to a Ki of 14.4 nM.
The molecule B7 came in with a Ki of 13.1 nM.
Consider B8, for which the Ki is 12.7 nM.
For B9, the affinity corresponds to a Ki of 17.3 nM.
In turn, B10 gave a Ki of 146 nM.
B11: the affinity corresponds to a Ki of 151 nM.
